Measurements as given in the RNAGym collection of RNA variant scans (doi:10.7554/elife.80360).

B1: Twister Ribozyme (parent)
chain: AACACUGCCAAUGCCGGUCCCAAGCCCGGAUAAAAGUGGAGGGGGCGG

Variants of: B1
Assay: self-cleavage, relative activity (ratio to wild type); higher = more cleavage; co-transcriptional

Row | Variant | self-cleavage
1 | AACACUGCAAAUGCCGGUCCCAAGCCGGGAUAAAAGUGGAGGGGGCGG [C9A C27G] | 0.0551
2 | AACACUGCAAAUGCCGGUCCCAAGCCUGGAUAAAAGUGGAGGGGGCGG [C9A C27U] | 0.304
3 | AACACUGCGAAUGCUGGUCCCAAGCCCGGAUAAAAGUGGAGGGGGCGG [C9G C15U] | 0.479
4 | AACACUGUCAAUGCCGGUCCCAAGCCCGGAUAAAAGUGCAGGGGGCGG [C8U G39C] | 0.147
5 | AACACUGCAGAUGCCGGUCCCAAGCCCGGAUAAAAGUGGAGGGGGCGG [C9A A10G] | 0.648
6 | AACACUGCACAUGCCGGUCCCAAGCCCGGAUAAAAGUGGAGGGGGCGG [C9A A10C] | 0.574
7 | AACACUGCAUAUGCCGGUCCCAAGCCCGGAUAAAAGUGGAGGGGGCGG [C9A A10U] | 0.646
8 | AACACUGCAAAUGCCCGUCCCAAGCCCGGAUAAAAGUGGAGGGGGCGG [C9A G16C] | 0.087
9 | AACACUGCAAAUGCCAGUCCCAAGCCCGGAUAAAAGUGGAGGGGGCGG [C9A G16A] | 0.372
10 | AACACUGCAAAUGCCGGUCCCAGGCCCGGAUAAAAGUGGAGGGGGCGG [C9A A23G] | 0.055
11 | AACACUGCAAAUGCCGGUCCCAAGCCCGGAUAAGAGUGGAGGGGGCGG [C9A A34G] | 0.501
12 | AACACUGCAAAUGCCGGUCCCAAGCCCGGAUAAUAGUGGAGGGGGCGG [C9A A34U] | 0.535
13 | AACACUGCAAAUGCCGUUCCCAAGCCCGGAUAAAAGUGGAGGGGGCGG [C9A G17U] | 0.0549
14 | AACACUGCAAAUGCCGCUCCCAAGCCCGGAUAAAAGUGGAGGGGGCGG [C9A G17C] | 0.0631
15 | AACACUGUCAAUGCCGGUCCCAAGCCCGGAAAAAAGUGGAGGGGGCGG [C8U U31A] | 0.592
16 | AACACUGUCAAUGCCGGUCCCAAGCCCGGAGAAAAGUGGAGGGGGCGG [C8U U31G] | 0.603
17 | AACACUGCAAAUACCGGUCCCAAGCCCGGAUAAAAGUGGAGGGGGCGG [C9A G13A] | 1.09
18 | AACACUGCAAAUCCCGGUCCCAAGCCCGGAUAAAAGUGGAGGGGGCGG [C9A G13C] | 0.729
19 | AACACUGUCAAUGCCGGUCCCAAGCCCGGAUAAAAGUGGAGGGAGCGG [C8U G44A] | 0.658
20 | AACACUGUCAAUGCCGGUCCCAAGCCCGGAUAAAAGUGGAGGGCGCGG [C8U G44C] | 0.598
21 | AACACUGUCAAUGCCGGUCCCAAGCCCGGAUAAAAGUGGAGCGGGCGG [C8U G42C] | 0.217
22 | AACACUGCAAAUGCCGGUCCCAAGCCCGGAUAAAAGUGGAGGAGGCGG [C9A G43A] | 0.153
23 | AACACUGCAAAUGCCGGUCCCAAGCCCGGAUAAAAGUGGAGGUGGCGG [C9A G43U] | 0.149
24 | AACACUGCAAAUGCCGGUCCCAAGCCCGGAUAAAAGUAGAGGGGGCGG [C9A G38A] | 0.393
25 | AACACUGCAAAUGCCGGUCCCAAGCCCGGAUAAAAGUCGAGGGGGCGG [C9A G38C] | 0.589
26 | AACACUGCAAAUGCCGGUCCCAAGUCCGGAUAAAAGUGGAGGGGGCGG [C9A C25U] | 0.185
27 | AACACUGCAAAUGCCGGUCCCAAGGCCGGAUAAAAGUGGAGGGGGCGG [C9A C25G] | 0.0787

Row | Variant | self-cleavage
28 | AACACUGCAAAUGCUGGUCCCAAGCCCGGAUAAAAGUGGAGGGGGCGG [C9A C15U] | 0.567
29 | AACACUGCAAAUGCAGGUCCCAAGCCCGGAUAAAAGUGGAGGGGGCGG [C9A C15A] | 0.35
30 | AACACUGCAAAUGCCGGUCCCAAGCUCGGAUAAAAGUGGAGGGGGCGG [C9A C26U] | 0.06
31 | AACACUGCGAAUGCCGGUCCCAGGCCCGGAUAAAAGUGGAGGGGGCGG [C9G A23G] | 0.0809
32 | AACACUGCGAAUGCCGGUCCCAUGCCCGGAUAAAAGUGGAGGGGGCGG [C9G A23U] | 0.0839
33 | AACACUGUCAAUGCCGGUCCCAAGCCCGGAUAAAAGUGGAGGGGGCUG [C8U G47U] | 0.345
34 | AACACUGUCAAUGCCGGUCCCAAGCCCGGAUAAAAGUGGAGGGGGCAG [C8U G47A] | 0.43
35 | AACACUGUCAAUGCCGGUCCCAAGCCCGGAUAAAAGUGGAGGGGGCCG [C8U G47C] | 0.199
36 | AACACUGUCAAUGCCGGUCCCAAGCCCGGAUAAAAGUGGAUGGGGCGG [C8U G41U] | 0.117
37 | AACACUGUCAAUGCCGGUCCCAAGCCCGGAUAAAAGUGGACGGGGCGG [C8U G41C] | 0.0951
38 | AACACUGCAAAUGCCGGUCCCAAGCCCGGAUAAAAGUGGGGGGGGCGG [C9A A40G] | 0.129
39 | AACACUGCGACUGCCGGUCCCAAGCCCGGAUAAAAGUGGAGGGGGCGG [C9G A11C] | 0.764
40 | AACACUGCAAAUGCCGGUGCCAAGCCCGGAUAAAAGUGGAGGGGGCGG [C9A C19G] | 0.0837
41 | AACACUGCAAAUGCCGGUACCAAGCCCGGAUAAAAGUGGAGGGGGCGG [C9A C19A] | 0.089
42 | AACACUGCGAAUGCCGGUCUCAAGCCCGGAUAAAAGUGGAGGGGGCGG [C9G C20U] | 0.23
43 | AACACUGCAAAUGCCGGUCCCAAGCCCGGAUAAAAGUGGAGGGCGCGG [C9A G44C] | 0.425
44 | AACACUGCAAAUGCCGGUCCCAAGCCCGGAUAAAAGUGGAGGGAGCGG [C9A G44A] | 0.664
45 | AACACUGCAAAUGCCGGUCCCUAGCCCGGAUAAAAGUGGAGGGGGCGG [C9A A22U] | 0.259
46 | AACACUGCAAAUGCCGGUCCCGAGCCCGGAUAAAAGUGGAGGGGGCGG [C9A A22G] | 0.101
47 | AACACUGCAAAUGCCGGUCCCCAGCCCGGAUAAAAGUGGAGGGGGCGG [C9A A22C] | 0.642
48 | AACACUGCAAAUGCCGGCCCCAAGCCCGGAUAAAAGUGGAGGGGGCGG [C9A U18C] | 0.0799
49 | AACACUGCAAAUGCCGGACCCAAGCCCGGAUAAAAGUGGAGGGGGCGG [C9A U18A] | 0.0887
50 | AACACUGCAAAUGCCGGUCCCAAGCCCGGAUAGAAGUGGAGGGGGCGG [C9A A33G] | 0.522
51 | AACACUGCAAAUGCCGGUCCCAAGCCCGGAUAUAAGUGGAGGGGGCGG [C9A A33U] | 0.638
52 | AACACUGCAAAUGCCGGUCCCAAGCCCGGGUAAAAGUGGAGGGGGCGG [C9A A30G] | 0.846
53 | AACACUGCAAAUGCCGGUCCCAAGCCCGGCUAAAAGUGGAGGGGGCGG [C9A A30C] | 0.608
54 | AACACUGCAAAUGCCGGUCCCAAGCCCGGUUAAAAGUGGAGGGGGCGG [C9A A30U] | 0.725
